Read-outs that look alike come from different tables or passages of the source.
How the values were obtained:
[1] = biological target: BG505 SOSIP.664 envelope trimer protein (HIV-1 clade A, BG505); test: BLI, antibody on anti-human Fc biosensor, Env in solution, global fit
[2] = biological target: clade C HIV-1 1086.c ENV SOSIP trimer (HIV-1 clade C, 1086.c); test: as above
[3] = biological target: BG505 T332N gp160 on pseudo-typed virus (HIV-1 clade A, BG505)
[4] = biological target: 1086.c gp160 wt on pseudo-typed virus (HIV-1 clade C, 1086.c)
[5] = biological target: BG505 SOSIP.664 envelope trimer protein (HIV-1 clade A, BG505); test: BLI, antibody on anti-human Fc biosensor, Env protein as analyte
[6] = biological target: clade C HIV-1 1086.c ENV SOSIP trimer (HIV-1 clade C, 1086.c); test: as above
[7] = biological target: clade C HIV-1 1086.c ENV SOSIP trimer (HIV-1 clade C, 1086.c); test: BLI, antibody on anti-human Fc biosensor, Env protein as analyte; the sheet has this in the 1086.C SOSIP rows, text paragraph 67 gives this KD for BG505 SOSIP.664
[8] = biological target: 1086.c gp160 wt on pseudo-typed virus (HIV-1 clade C, 1086.c); test: cell-based or functional assay
[9] = biological target: HIV-1 Env 1086.C gp140C envelope glycoprotein (HIV-1 clade C, 1086.c); test: BLI, antibody on anti-human Fc biosensor, Env in solution, global fit
[10] = biological target: HIV-1 Env 1086.C D7gp120 envelope glycoprotein (HIV-1 clade C, 1086.c); test: as above
[11] = biological target: clade C HIV-1 1086.c ENV SOSIP trimer (HIV-1 clade C, 1086.c); test: as above; remark: listed apart in the source
[12] = biological target: HIV-1 Env 1086.C gp140C envelope glycoprotein (HIV-1 clade C, 1086.c); test: BLI, antibody on anti-human Fc biosensor, Env protein as analyte
[13] = biological target: HIV-1 Env 1086.C D7gp120 envelope glycoprotein (HIV-1 clade C, 1086.c); test: as above
[14] = biological target: clade C HIV-1 1086.c ENV SOSIP trimer (HIV-1 clade C, 1086.c); test: as above; remark: listed apart in the source
[15] = biological target: BG505 SOSIP.664 envelope trimer protein (HIV-1 clade A, BG505); test: BLI, antibody on anti-human Fc biosensor, Env protein as analyte; text paragraph 65 prints <1.03x10^-3 nM
[16] = biological target: clade C HIV-1 1086.c ENV SOSIP trimer (HIV-1 clade C, 1086.c); test: BLI, antibody on anti-human Fc biosensor, Env protein as analyte; text paragraph 65 prints 0.12 nM

Substance	Kd [1] [nM]	Kd [2] [nM]	neutralisation IC50, pseudo-typed virus on TZM-bl cells [3] [µg/mL]	neutralisation IC50, pseudo-typed virus on TZM-bl cells [4] [µg/mL]	koff [5] [s⁻¹]	kon [5] [M⁻¹ s⁻¹]	koff [6] [s⁻¹]	kon [6] [M⁻¹ s⁻¹]	also measured
VRC01 (antibody)	0.0021	< 0.001	0.06	0.49	< 1e-07	23200	< 1e-07	72800	–
35O22 (antibody)	0.0013	–	–	> 4	–	–	–	–	Kd [7]: 0.0013 nM
VRC-CH31 (antibody)	–	–	0.011	2.16	–	–	–	–	–
PGT121 (antibody)	0.15	0.17	0.003	–	5.35e-06	34900	7.93e-05	460000	neutralization of pseudotyped virus in TZM-bl cells, IC50 [8]: < 0.001 µg/mL
CH59 (antibody)	–	–	–	> 4	–	–	–	–	Kd [9]: 0.0012 nM; Kd [10]: 1.81 nM; Kd [11]: < 0.001 nM; koff [12]: < 1e-07 s⁻¹; kon [12]: 10200 M⁻¹ s⁻¹; koff [13]: 0.000105 s⁻¹; kon [13]: 57900 M⁻¹ s⁻¹; koff [14]: < 1e-07 s⁻¹; kon [14]: 63700 M⁻¹ s⁻¹
CH58 (antibody)	–	< 0.001	–	–	–	–	–	680000	Kd [9]: 0.22 nM; Kd [10]: 9.31 nM; Kd [11]: < 0.00103 nM; koff [12]: 1.25e-05 s⁻¹; kon [12]: 56800 M⁻¹ s⁻¹; koff [13]: 0.0012 s⁻¹; kon [13]: 129000 M⁻¹ s⁻¹; koff [14]: < 1e-07 s⁻¹; kon [14]: 680000 M⁻¹ s⁻¹
F105 (antibody)	0.0129	0.00172	–	–	< 1e-07	3750	< 1e-07	30400	–
N6 (antibody)	0.00114	< 0.001	0.031	0.023	< 1e-07	42200	< 1e-07	52300	–
3869 (antibody)	0.002	< 0.001	–	> 4	4.83e-08	24200	< 1e-07	2.56e+06	–
VRC03 (antibody)	< 0.00103	–	2.83	–	< 1e-07	78600	–	–	Kd [15]: < 0.001 nM
IgG1 b12 (antibody)	–	0.12	–	> 4	–	–	9.85e-05	811000	Kd [16]: 0.122 nM
10-1074 (antibody)	< 0.001	–	0.003	–	< 1e-07	48600	–	–	–
PG09 (antibody)	2.1	12.4	0.02	–	0.0001	47600	0.000475	38200	–
PG16 (antibody)	7.35	–	0.011	–	0.000358	48600	–	–	–
2G12 (antibody)	< 0.001	0.07	0.29	–	4.83e-08	254000	5.61e-05	821000	–
PGT128 (antibody)	< 0.001	0.35	0.003	–	< 1e-07	78600	0.000414	1.18e+06	–
HJ16 (antibody)	1.29	3.59	> 4	3.82	0.000128	99500	0.000151	42200	–
PGT145 (antibody)	2.57	1.22	< 0.001	–	0.000482	187000	0.00194	1.59e+06	–
CH106 (antibody)	0.00351	5.33	> 4	3.63	< 1e-07	13700	6.64e-05	12500	–
3BNC117 (antibody)	0.00108	0.3	0.007	0.21	< 1e-07	44700	3.92e-05	132000	–
PGT126 (antibody)	< 0.001	0.37	0.006	–	< 1e-07	268000	0.000462	1.26e+06	–
CD4-IgG2 (Fc fusion)	–	–	> 4	–	–	–	–	–	neutralization of pseudotyped virus in TZM-bl cells, IC50 [8]: 1.72 µg/mL

— US20240181040A1
